Source: patent publication US20260193293A1, “PEPTIDES CAPABLE OF INHIBITING PROTEIN-PROTEIN INTERACTIONS AT GABAB1A SUBUNIT AND USES THEREOF” (UNIVERSITY OF COPENHAGEN, priority 2022, published 2026)
Non-standard residues stand in square brackets, D forms with d. 2Nal = N[C@@H](Cc1ccc2ccccc2c1)C(=O)O

B1: R4-21 (Ac-RRRREDDD(2Nala)…-NH2) (peptide)
peptide: Ac-RRRREDDD[2Nal]IDWGPTSDDD-NH2
SMILES: CC[C@H](C)[C@H](NC(=O)[C@H](Cc1ccc2ccccc2c1)NC(=O)[C@H](CC(=O)O)NC(=O)[C@H](CC(=O)O)NC(=O)[C@H](CC(=O)O)NC(=O)[C@H](CCC(=O)O)NC(=O)[C@H](CCCNC(=N)N)NC(=O)[C@H](CCCNC(=N)N)NC(=O)[C@H](CCCNC(=N)N)NC(=O)[C@H](CCCNC(=N)N)NC(C)=O)C(=O)N[C@@H](CC(=O)O)C(=O)N[C@@H](Cc1c[nH]c2ccccc12)C(=O)NCC(=O)N1CCC[C@H]1C(=O)N[C@H](C(=O)N[C@@H](CO)C(=O)N[C@@H](CC(=O)O)C(=O)N[C@@H](CC(=O)O)C(=O)N[C@@H](CC(=O)O)C(N)=O)[C@@H](C)O

molecular target: Sushi domains (SD1/2) protein of the GABAB1a (GB1a) subunit, recombinant; assay: FP competition
Sequence (Q9Z0U4 29-158): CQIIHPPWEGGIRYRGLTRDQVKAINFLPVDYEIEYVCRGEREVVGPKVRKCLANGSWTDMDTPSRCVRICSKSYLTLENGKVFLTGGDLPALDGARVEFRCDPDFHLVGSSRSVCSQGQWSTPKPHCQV

Ki [nM]	Binder
147	Ac-EDDDWIDWGPTSDDDGGGGSRRRRRRRR-NH2 [17-FL-R8 (…)]
118	Ac-EDDDWIDWYDSDDDGGGGSRRRRRRRR-NH2 [16-FL-R8 (…)]
123	Ac-EDDDWIDWGPTSDDDRRRRRRRR-NH2 [17-R8 (…)]
280	Ac-RRRRRRRRGGGGSEDDDWIDWYDSDDD-NH2 [R8-FL-16 (…)]
140	Ac-RRRRRRRRGGGGSEDDDWIDWGPTSDDD-NH2 [R8-FL-17 (…)]
139	Ac-EDDDWIDWGPTSDDDEAAAKRRRRRRRR-NH2 [17-RL-R8 (…)]
100	Ac-EDDDWIDWYDSDDDEAAAKRRRRRRRR-NH2 [16-RL-R8 (…)]
58	Ac-RRRRRRRREDDDWIDWGPTSDDD-NH2 [R8-17 (Ac-…-NH2)]
105	Ac-RRRRRRRREAAAKEDDDWIDWGPTSDDD-NH2 [R8-RL-17 (…)]
13	B1
314	Ac-RRRRRRRREAAAKEDDDWIDWYDSDDD-NH2 [R8-RL-16 (…)]

molecular target: Sushi domains (SD1/2) protein of GABAB1a (GB1a); assay: FP competition vs TAMRA AJAP-1probe
Sequence (Q9Z0U4 29-158): as the sequence (Q9Z0U4 29-158) above

Ki [nM]	Binder
40	Ac-ETEFIAWGPFGDED-NH2
27	Ac-ETEFIAWGPTGDDD-NH2
240	Ac-ETEFIAWHPTGDED-NH2
30	Ac-ETEFIAWGPTHDED-NH2
192	Ac-PWFIVWGPTVSDED-NH2
40	Ac-ETEFIAWGPTGDYD-NH2
683	Ac-AIVWGPTVSRED-NH2
48	Ac-ETEFIAWGPTGDEF-NH2
26	Ac-ETDFIAWGPTGDED-NH2
35	Ac-ETEWIAWGPTGDED-NH2
43	Ac-ETEFIAWGPTGDEN-NH2
41	Ac-ETEFIAWGPTGYED-NH2
379	Ac-PWAIVWGPTVDRED-NH2
417	Ac-PWAIVWGPTDSRED-NH2
54	Ac-ETEFIAWGPTGDEW-NH2
199	Ac-ETEFIAWYPTGDED-NH2
1300	Ac-PWAIDWGPTVSRED-NH2
18	Ac-ETEYIAWGPTGDED-NH2
9	Ac-ETEFIDWGPTGDED-NH2 [peptide 26]
41	Ac-ETEFIAWGPTGDFD-NH2
37	Ac-ETEFIAWGPTGDEQ-NH2
32	Ac-ETEFIAWGPSGDED-NH2
1500	Ac-PHAIVWGPTVSRED-NH2
34	Ac-ETEFIAWGPTGDPD-NH2
54	Ac-ETEFIAWGPTGDWD-NH2
302	Ac-PWVIVWGPTVSRED-NH2

Ki [nM]	Binder
34	Ac-ETSFIAWGPTGDED-NH2
503	Ac-FIVWGPTVSRED-NH2 (not fully specified; printed as FIVWGPTVSRED*)
336	Ac-PWYIVWGPTVSRED-NH2
327	Ac-PWAIVWGPTVSDED-NH2
906	Ac-PSAIVWGPTVSRED-NH2
383	Ac-PWAIVWGPTSSRED-NH2
30	Ac-ETEFIVWGPTGDED-NH2
715	Ac-DAIVWGPTVSRED-NH2 [… (SEQ ID NO: 341)]
461	Ac-PWFIVWGPTVSRED-NH2
673	Ac-PDAIVWGPTVSRED-NH2
338	Ac-DWAIVWGPTVSRED-NH2
38	Ac-ETEFIAWGPHGDED-NH2
60	Ac-ETEFIAWGPTGHED-NH2
54	Ac-ETEFIAWGPTGDRD-NH2
40	Ac-ETEFIAWGPTGDEV-NH2
41	Ac-ETEFIAWGPTGDEP-NH2
87	Ac-RTEFIAWGPTGDED-NH2
792	Ac-PFAIVWGPTVSRED-NH2
28	Ac-EVEFIAWGPTGDED-NH2
773	Ac-AIVWGPTVSRED-NH2 (also: asterisk not explained)
32	Ac-ETEFIAWGPTRDED-NH2
367	Ac-FIVWGPTVSRED-NH2
24	Ac-ETEFIHWGPTGDED-NH2
412	Ac-VWAIVWGPTVSRED-NH2
208	Ac-DAIVWGPTVSRED-NH2 [… (SEQ ID NO: 342)]
62	Ac-NTEFIAWGPTGDED-NH2
